Test results: patent US20030224997A1
Positions of bridges follow the written chain, without caps; N, C: chain ends. No end group written: not given here. *: point of attachment. Biotin = O=C1N[C@H]2[C@H](CS[C@H]2CCCCC(=O)*)N1

Assays:
[1] = target: protein on the CEM cell surface that binds L1AD3 (L1AD3 protein receptor, 27-35 kDa) (human)
[2] = target: protein on the CEM cell surface that binds L1AD3 (L1AD3 protein receptor, 27-35 kDa) (human); test: fluorescence spectroscopy, CEM cells in suspension, avidin-FITC
[3] = target: protein on the CEM cell surface that binds L1AD3 (L1AD3 protein receptor, 27-35 kDa) (human); remark: listed apart in the source

Binder | Kd [1] [µM] | fluorescence increase over cells not incubated with biotinylated peptide [2] [%] | percent inhibition of binding of biotinylated L1AD3 [3] [%] | percent reduction of binding of biotinylated peptide [1] [%]
Biotin-LKCNKLVPLFYKTC (disulfide 3-14) [biotinylated L1AD3 (btn-…), cyclized] | 6 | 48 | – | –
LKCNKLVPLFYKTC (disulfide 3-14) [L1AD3 peptide (…), cyclized] | – | – | 50 | 47
